Results: PMC7746637 (Nature chemical biology, 2020)
Like-named read-outs stand apart in the source and are kept apart here.

Legend:
Test in all cases: native MS
[1] = biological target: K2P4.1a (TRAAK, shorter isoform, truncated, residues 1-264), tags removed (human)
[2] = biological target: the molecule itself
[3] = biological target: the molecule itself; remark: listed apart in the source

**Q.** With “K2P4.1a (TRAAK, shorter isoform, truncated, residues 1-264), tags removed (domain or fragment)” as the molecule, how does the stoichiometry N [1] read?
**A.** 2

B1: K2P4.1b (residues 1-290) as a C-terminal fusion to mCherry, Strep-tag II and His6 (pPIC-K2P4.1b-mC-S-H) (domain or fragment, human, UniProt Q9NYG8-2 1-290, looked up)
chain: MTTAPQEPPARPLQAGSGAGPAPGRAMRSTTLLALLALVLLYLVSGALVFRALEQPHEQQAQRELGEVREKFLRAHPCVSDQELGLLIKEVADALGGGADPETQSTSQSSHSAWDLGSAFFFSGTIITTIGYGNVALRTDAGRLFCIFYALVGIPLFGILLAGVGDRLGSSLRHGIGHIEAIFLKWHVPPELVRVLSAMLFLLIGCLLFVLTPTFVFCYMEDWSKLEAIYFVIVTLTTVGFGDYVAGADPRQDSPAYQPLVWFWILLGLAYFASVLTTIGNWLRVVSRRT
**Q.** How did the “stoichiometry N” value [2] turn out when B1 was run?
**A.** 2

B2: K2P4.1b (TRAAK, longer isoform, truncated, residues 1-290), expressed with tags at both termini, tags removed (domain or fragment, human, UniProt Q9NYG8-2 1-290, looked up)
chain: B1 chain
**Q.** How did the “stoichiometry N” value [3] turn out when B2 was run?
**A.** 2
